The values that follow come from US20140105905A1 (Amgen, published 2014).

Assay [1] concerns the target T1, recombinant human Interleukin-8 (human, UniProt P10145 28-99).
T1 construct: also called rhIL-8; IL-8
T1 sequence (looked up): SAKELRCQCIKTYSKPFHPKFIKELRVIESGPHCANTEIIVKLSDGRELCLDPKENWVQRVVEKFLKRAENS
The experiment in a line: KinExA equilibrium in solution, 36 h, mAb 25 pM. Here is the method: (§1) The experiments with KinExA were performed using an automated flow immunoassay system, KinExA 3000 [Ohmura et al., Anal. Chem. 73:3392, 2001] in which rhIL-8-coupled beads served as the solid phase. […] Antigen/antibody complexes were incubated at RT for 36 h to 144 h to allow equilibrium to be reached. The mixture was drawn through the rhIL-8-coupled beads to accumulate unbound antibody. The captured anti-hIL-8 mAb is directly proportional to the remaining free binding sites and was detected using solutions containing Cy5-conjugated anti-human secondary antibody in sample buffer. The concentrations, volumes, and flow rates of the secondary antibody solutions were varied to optimize the signal to noise ratio in each experiment. The bound signals were converted into relative values as a proportion of control in the absence of rhIL-8. The equilibrium dissociation constant (Kd) was obtained from nonlinear regression analysis of the data using a one-site homogeneous binding model contained within the software [Blake et Al., Anal. Biochem. 272:123, 1999; Jones et al., Bioconjug Chem 13:408, 2002]. The software calculates the Kd and determines the 95% confidence interval by fitting the data points to a theoretical Kd curve. The 95% confidence interval is given as Kd low and Kd high.
A proportionate amount of free mAb present in the equilibrium mixture was measured by flowing 0.25 ml to 3 ml of the sample on rhIL-8 coupled to CNBr-activated Sepharose beads and detected using 1.0 ml of 1.7 μg/ml of Cy5-labeled goat anti-human IgG Fcγ fragment-specific secondary antibody. Each sample was run in triplicate. The Kd was calculated by the KinExA software and the 95% confidence interval is given as the Kd range.

Assay [2] addresses T1, recombinant human Interleukin-8. The experiment in a line: KinExA equilibrium in solution, 36 h, mAb 10 pM. On the procedure:
as §1, with “The software calculates the Kd and determines the 95% confidence interval by fitting the data points to a theoretical Kd curve. The 95% confidence interval is given as Kd low and Kd high.” left out
(§2) A proportionate amount of free mAb present in the equilibrium mixture was measured by flowing 0.25 ml to 3 ml of the sample on rhIL-8 coupled to CNBr-activated Sepharose beads and detected using 1.0 ml of 1.7 μg/ml of Cy5-labeled goat anti-human IgG Fcγ fragment-specific secondary antibody. […]
(In general: In KinExA the mixture passes briefly over coated beads that capture the unbound partner.)

Assay [3] shares this target. Description: KinExA equilibrium in solution, 36 h, mAb 200 pM. On the procedure:
as §1, with “The software calculates the Kd and determines the 95% confidence interval by fitting the data points to a theoretical Kd curve. The 95% confidence interval is given as Kd low and Kd high.” left out
as §2

In assay [4] the target is T2, IL-8 peptide ELRCQCIKTYSK (human).
T2 peptide: ELRCQCIKTYSK
Description: overlapping IL-8 peptides on a membrane; column "Recognized epitope". Here is the method: Briefly, overlapping IL-8 peptides, which were each two amino acids c-terminal to the previous peptide (as shown in FIG. 8) were prepared and attached to a membrane. Antibodies were then added and allowed to bind to the peptides.

Assay [5] addresses T1, recombinant human Interleukin-8. Description: KinExA equilibrium, optimized, n-curve analysis, mAb 4.6 and 27 pM. An excerpt: (§3) The mixture was drawn through the rhIL-8-coupled beads to accumulate unbound antibody. The captured anti-hIL-8 mAb is directly proportional to the remaining free binding sites and was detected using solutions containing Cy5-conjugated anti-human secondary antibody in sample buffer. The concentrations, volumes, and flow rates of the secondary antibody solutions were varied to optimize the signal to noise ratio in each experiment. The bound signals were converted into relative values as a proportion of control in the absence of rhIL-8. The equilibrium dissociation constant (Kd) was obtained from nonlinear regression analysis of the data using a one-site homogeneous binding model contained within the software [Blake et Al., Anal. Biochem. 272:123, 1999; Jones et al., Bioconjug Chem 13:408, 2002]. […]
(§4) A proportionate amount of free mAb present in the equilibrium mixture was measured in KinExA under optimized conditions. For example, for the mixtures containing the low concentration of mAb, 18-36 ml of the sample was flown through rhIL-8 coupled to NHS-activated Sepharose beads and detected using 1-2 ml of 2.0 μg/ml of Cy5-labeled goat anti-human IgG Fcγ fragment-specific secondary antibody. The Kd was calculated using KinExA software by using the “n-curve analysis” selection.

The target is the same in assay [6]. Description: KinExA "Kinetics, Direct" method. An excerpt: (§5) For measuring the association rate constant using KinExA, the same rhIL-8-coupled beads were used as the probe and the “Kinetics, Direct” method was used. The “Kinetics, Direct” experiments by KinExA are identical to KinExA equilibrium assays with respect to bead column height, antibody capture, antibody concentration and antibody detection. Briefly, the mAb was mixed with an amount of antigen that bound approximately 80% of the mAb in the equilibrium experiments and the free antibody present in the sample was probed repeatedly, pre-equilibrium. […] The volumes and flow rates of the antigen-mAb mixtures and the Cy5-labeled secondary antibody were varied depending upon the mAb tested. Data was analyzed utilizing the KinExA analysis software that comes with the KinExA 3000 instrument. This software graphically represents the decrease in binding signals over time, and fits the collected data points to an exact solution of the kinetic differential equations for binding. From this curve, an optimal solution for the kₒₙ is determined. The koff is indirectly calculated from solutions for the kₒₙ and Kd.
(§6) The on-rate measurement by KinExA is not limited by the mAb concentration used in the experiment. […] The concentration of mAb used for on-rate experiments was the same as those used in equilibrium binding experiments. An amount of IL-8 that bound 80% of the mAb in equilibrium binding experiments was mixed with the mAb. The amount of free mAb left in the mixture was measured in KinExA by flowing 1 ml of the mixture repeatedly through rhIL-8 coupled to NHS-activated Sepharose beads and detected using 1 ml of 2.0 μg/ml of Cy5-labeled goat anti-human IgG Fcγ fragment-specific secondary antibody. The kₒₙ was measured using the KinExA software by the “Kinetic, Direct” method and the 95% confidence intervals are given as kₒₙ range. The koff for the mAb was calculated from the measured kₒₙ and Kd of the respective mAb.

The target is the same in assay [7]. Description: calculated from KinExA kon and Kd.
Text: as §5, §6

Assay [8] has the same target. The experiment in a line: KinExA equilibrium in solution, 36 h, mAb 23 pM. On the procedure:
as §1, with “The software calculates the Kd and determines the 95% confidence interval by fitting the data points to a theoretical Kd curve. The 95% confidence interval is given as Kd low and Kd high.” left out
as §2

For assay [9] the target is unchanged. Description: not named in this sentence (summary of the filing's own affinity results).
Assay [10] shares this target. Description: KinExA equilibrium, optimized, n-curve analysis, mAb 1.3 and 13 pM.
Text: as §3, §4

For assay [11] the target is unchanged. The experiment in a line: KinExA equilibrium, optimized, n-curve analysis, mAb 18 and 120 pM.
Text: as §3, §4

The target is the same in assay [12]. The experiment in a line: KinExA equilibrium in solution, 36 h, mAb 90 pM. On the procedure: as §1, with “The software calculates the Kd and determines the 95% confidence interval by fitting the data points to a theoretical Kd curve. The 95% confidence interval is given as Kd low and Kd high.” left out
as §2

For assay [13] the target is unchanged. Description: KinExA equilibrium in solution, 36 h, mAb 100 pM. Here is the method:
as §1, with “The software calculates the Kd and determines the 95% confidence interval by fitting the data points to a theoretical Kd curve. The 95% confidence interval is given as Kd low and Kd high.” left out
as §2

B1: anti-hIL-8 mAb 142 (antibody, human IgG2, V domains shown)
VH: QVQLVQSGAEVKKPGASVKVSCKASGYTFTGYYMHWVRQAPGQGLEWMGWINSNSGGTNYSQKFQGRVTMTRDTSISTVYMELSRLRSDDTAVYYCASGYSYGYRYYYYGMDVWGQGTTVTVSS
VL: DIQMTQSPSSLSASVGDRVTITCRASQGISNSLAWYQQKPGKVPNLLIYAASTLQSGVPSRFSGSGSGTDFTLTISSLQPEDVATYYCQKYNSVPLTFGGGTKVEIK
notes: also called antibody number 142
B1: in assay [1], the Kd – broadly, the constant that tells how readily two partners part at equilibrium – turned out to be 0.4 nM.

B2: anti-hIL-8 mAb 203 (antibody, human IgG2, V domains shown)
VH: QVQLVQSGAEVKKPGASVKVSCKASGYTFTGYYIHWVRQAPGQGLEWMGWINSNSGGTNFAQKFQGRVTMTRDTSISTAYMELSRLRPDDTAVYYCASGYRYGYRYYYYGMDVWGQGTTVTVSS
VL: DIQMTQSPSSLSASVGDRVTITCRASQGISNSLAWYQQKPGKVPKLLIYAASTLQSGVPSRFSGSGSGTDFTLTISSLQPEDVATYYCQKYNSVPLTFGGGTKVEIN
notes: also called antibody number 203
For B2, the Kd in assay [1] came to 0.19 nM.

B3: anti-hIL-8 mAb 33 (antibody, human IgG2, V domains shown)
VH: QVQLQQWGAGLLKPSETLSLTCAVYGGFFSGYYWSWIRQPPGKGLEWIGEINHSGSTNYNPSLKSRVTISVDTSKNQFSLKLISVTAADTAVYYCARGSAAEAFDIWGQGTMVTVSS
VL: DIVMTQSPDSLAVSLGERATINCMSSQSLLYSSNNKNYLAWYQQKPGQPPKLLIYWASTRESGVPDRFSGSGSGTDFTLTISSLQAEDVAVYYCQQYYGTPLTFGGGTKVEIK
notes: also called antibody number 33
On to B3, for which the Kd in assay [2] amounted to 0.28 nM.

B4: anti-hIL-8 mAb 1080 (antibody, human IgG2, V domains shown)
VH: QVQLQQWGAGLLKPSESLSLTCAVYGGSFFSGYYWSWIRQPPGKGLEWIGEITHSGNTNYNPSLKSRVSISVDTSTNQFSLKLSSVTAADTAVYYCGRGGAEVGFDYWGQGTLVTVSS
VL: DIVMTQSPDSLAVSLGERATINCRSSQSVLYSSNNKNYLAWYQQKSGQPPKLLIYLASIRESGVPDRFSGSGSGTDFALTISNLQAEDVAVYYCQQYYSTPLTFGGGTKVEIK
For the molecule B4, the Kd in [1] was determined as 0.63 nM.

B5: anti-hIL-8 mAb 469 (antibody, human IgG2, V domains shown)
VH: EVQLLESGGGLVQPGGSLRLSCAASGFTFSSYVMSWVRQAPGKGLEWVSAINNSGGSTDYADSVKGRFTISRDNSKNTLYLQMNSLRAEDTAVYYCAKEGRFLEWSLYGLDVWGQGTTVTVSS
VL: DIQMTQSPSSLSASVGDRVTIACRASQGIRNDLGWYQQKPGKAPKRLIYAASSLQSGVPSRFGGSGSGTEFTLTISSLQPEDFATYYCLQHNSYPRTFGQGTKVEIK
notes: also called antibody number 469
As for B5, the Kd in assay [3] was 0.87 nM.

B6: anti-hIL-8 mAb 809 (antibody, human IgG2, V domains shown)
VH: QVQLVESGGGVVQPGRSLRLSCAASGFTFSSYGMLWVRQAPGKGLEWVADISYDGSNKYYADSVKGRFTISRDNSKNTLFLQMNSLRAEDTAVYYCARDRIAVADYWGQGTLVTVSS
VL: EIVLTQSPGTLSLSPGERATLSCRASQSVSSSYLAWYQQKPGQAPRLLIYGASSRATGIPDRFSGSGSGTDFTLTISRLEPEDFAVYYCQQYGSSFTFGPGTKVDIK
notes: also called clone 6G11
For B6, in assay [4], the binding result is recorded as “binds”. Besides, the figures for the Kd in assay [5], in [8] and in assay [9] were 0.00329 nM, 0.0022 nM and approximately 0.00223 nM, respectively. Also, the kon (in general, the rate constant with which the complex forms) in assay [6] came out at 4.8e+06 M⁻¹ s⁻¹. Further, the koff (as a rule, a measure of how fast the partners let go of each other) in assay [7] was 1.6e-05 s⁻¹.

B7: anti-hIL-8 mAb 861 (antibody, human IgG2, V domains shown)
VH: QVQLVESGGGVVQPGRSLRLSCAASGFTFSNYGMHWVRQAPGKGLEWVAVIYFEGSNKYNADSVKGRFTISRDNSKNTLYLQMNSLRAEDTAVYYCARSPYGDYLDYWGQGTLVTVSS
VL: EIVLTQSPGTLSLSPGERATLSCRASQTIDYNYLHWYQQKPGQAPRLLIYGTFIRATVIPDRFSGSGSGTDFTLTISRLEPEDIAVYYCQQFGRSPLTFGGGTKVEIK
notes: also called antibody number 861
Take B7: the Kd in [10] was 0.003 nM; in assay [1], 0.0029 nM; in [9], approximately 0.00289 nM. Moreover, the kon in assay [6] amounted to 4.4e+06 M⁻¹ s⁻¹. In addition, the koff in assay [7] is 1.3e-05 s⁻¹.

B8: anti-hIL-8 mAb 837 (antibody, human IgG2, V domains shown)
VH: QVQLQQWGAGLLKPSETLSLTCAVFGGTFSGYYWTWIRQPPGKGLEWIGEVIHHGSTNYSPSLKSRVTISADTSKSQFSLRLSSVTAADTAVYYCARGGAAAALDSWGQGTLVIVSS
VL: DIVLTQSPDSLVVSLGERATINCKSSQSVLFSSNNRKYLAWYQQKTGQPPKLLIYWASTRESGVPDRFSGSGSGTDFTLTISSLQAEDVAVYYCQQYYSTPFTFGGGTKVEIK
notes: also called clone 36C6; ABXha-IL-8
Consider B8, for which the Kd in assay [11] was 0.0157 nM; in assay [12] it was 0.011 nM; in assay [9], approximately 0.0109 nM. The binding result in assay [4] is reported as “binds”. In assay [6], the kon was 1.1e+06 M⁻¹ s⁻¹. Further, the koff in assay [7] is 1.9e-05 s⁻¹.

B9: anti-hIL-8 mAb 1093 (antibody, human IgG2, V domains shown)
VH: QVQLQQWGAGLLKPSETLSLTCAVFGGSFSGYYWTWIRQPPGKGLEWIGEIIHHGSTNYSPSLKSRVTISADTSKSQFSLRLSSVTAADTAVYYCARGGAAAGLDSWGQGTLVTVSS
VL: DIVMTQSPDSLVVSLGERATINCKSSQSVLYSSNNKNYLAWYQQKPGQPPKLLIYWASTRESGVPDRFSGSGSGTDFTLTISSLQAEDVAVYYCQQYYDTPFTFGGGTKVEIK
notes: also called antibody number 1093
Consider B9, for which the Kd in [13] was 0.2 nM.
